Results from patent US20190241662A1 (ADAGENE, published 2019).

Columns and labels:
[1] = target: T1, recombinant human CTLA4-Fc (human, UniProt P16410 36-162); test: BLI Octet, CTLA4-Fc on AHC sensor, Fab 10 ug/mL
T1 construct: also called human CTLA4 fused with human FC fragment; CTLA4-Fc (Sino Biological, 11159-H03H)
T1 sequence (looked up): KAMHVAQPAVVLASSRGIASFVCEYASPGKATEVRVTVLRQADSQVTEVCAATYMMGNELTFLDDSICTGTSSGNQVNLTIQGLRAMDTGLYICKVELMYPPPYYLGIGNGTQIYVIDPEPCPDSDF
Description: Proprietary phagemid libraries (see PCT application number PCT/CN2017/098333, incorporated herein by reference in its entirety; see also PCT application number PCT/CN2017/098299, incorporated herein by reference in its entirety) were employed to pan against human CTLA4 antigens. A total of 3-5 rounds of panning were conducted. After the final round of panning, single-colony supernatant ELISA was performed to identify the primary hits that specifically recognized human CTLA4 (see e.g., UniProt Accession Number P16410). The primary hits were defined as those whose ELISA signals were at least twice that of background. The hits were then sequenced, and the unique clones were expressed in E. coli and purified. Their affinities against human CTLA4 were measured by ForteBio Octet RED96 Systems. […] The acquired ForteBio data were processed with Data Acquisition software 7.1, and kinetic data were fitted to a 1:1 Langmuir binding model.

[2] = target: T2, recombinant human CTLA4 protein (construct not stated) (human, UniProt P16410 36-162, limits assumed); test: SPR (Biacore T200), IgG captured by anti-human Fc
T2 construct: also called biotinylated human CTLA4; human recombinant CTLA4 proteins
T2 sequence (looked up): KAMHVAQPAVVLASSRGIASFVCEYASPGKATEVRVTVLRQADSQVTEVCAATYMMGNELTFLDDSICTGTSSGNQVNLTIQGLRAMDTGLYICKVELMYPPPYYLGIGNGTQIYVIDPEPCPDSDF
Excerpt: (§1) Binding affinity and kinetics of antibodies against human, monkey and mouse CTLA4 were examined (Table 4) by surface plasmon resonance (SPR) analysis using a Biacore™ T200 instrument (Biacore AB, Uppsala, Sweden) according to the manufacturer's guidelines. Anti-Human IgG (Fc) antibody from Human Antibody Capture Kit (GE BR-1008-39) was immobilized on CM5 chips by coupling of its amine groups onto carboxylated surfaces of sensor chips according to the instructions of an Amine Coupling kit (GE Biacore #BR-1000-50). […] The association and dissociation curves were fitted to a 1:1 Langmuir binding model using Biacore T200 Evaluation Software (Biacore AB) according to the manufacturer's guidelines.

[3] = target: mouse CTLA4 (SPR analyte, construct not stated) (mouse, UniProt P09793 36-162, limits assumed); test: SPR (Biacore T200), IgG captured by anti-human Fc
Excerpt: as §1

[4] = target: T3, monkey CTLA4 (SPR analyte, construct not stated) (monkey, UniProt G7PL88 36-161); test: SPR (Biacore T200), IgG captured by anti-human Fc
T3 sequence: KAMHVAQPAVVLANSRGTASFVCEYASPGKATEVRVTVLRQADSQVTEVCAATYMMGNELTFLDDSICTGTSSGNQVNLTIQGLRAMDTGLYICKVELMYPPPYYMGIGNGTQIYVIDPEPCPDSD
Excerpt: as §1

[5] = target: T1, recombinant human CTLA4-Fc; test: ELISA, coated human CTLA4-Fc (as in Example 8)
Description: Plates were blocked with PBS supplemented with 3% non-fat milk at 37° C. for 1 hour. After washing, 100 μL of 3-fold serial dilutions of antibodies were added to each well. After incubation at 37° C. for 1 hour, plates were washed four times, and 100 μL HRP conjugated anti-human IgG (Fab specific) (1:6000 dilution) was added to each well. Plates were incubated at 37° C. for 1 hour, washed four times, and then 50 μL TMB substrate solution was added to each well, and the plate was incubated at room temperature. […] The EC₅₀ was evaluated by fitting the ELISA data using the asymmetrical sigmoidal (five-parameter logistic equation) model of GraphPad Prism 6 software.

[6] = target: T4, recombinant human CTLA4 fused with human Fc and His tag (human, UniProt P16410 36-162, limits assumed); test: competition ELISA: plate-bound human CTLA4-Fc-His, biotinylated CD80 as blocked ligand
T4 construct: Coated in the CD80 ELISA, biotinylated and in solution in the CD86 ELISA; also called biotinylated human CTLA4 fused with human FC and His tag
T4 sequence (looked up): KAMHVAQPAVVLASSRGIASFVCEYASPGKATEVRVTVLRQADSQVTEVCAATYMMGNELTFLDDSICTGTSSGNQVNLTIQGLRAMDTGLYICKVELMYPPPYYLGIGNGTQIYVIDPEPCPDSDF
Description: Antibodies were then tested for their ability to block binding of CTLA4 to its cognate ligands CD80 and CD86 by ELISA. […] Plates were blocked with PBS supplemented with 2% (w/v) skim milk at 37° C. for 1 hour. […] Plates were washed four times, and 100 μL HRP-neutravidin (1:1000) was added to each well and incubated at 37° C. for 1 hour. Plates were washed as previously described, and 50 μL TMB substrate solution was added and incubated at room temperature for 5 minutes before the reaction was stopped by 50 μL sulfate acid (2M).

[7] = target: T5, full-length human CTLA4 expressed on cells (human, UniProt P16410 36-223); test: flow cytometry blocking: HEK293F cells with human CTLA4, 100 nM antibody, then 100 nM CD80-Fc-Bio (blocked ligand); PBSA panel: Mean 157692, 26.3%
T5 construct: whole, on cells; also called HEK293F/hCTLA-4 cells; HEK293F/hCTLA4 cells
T5 sequence (looked up): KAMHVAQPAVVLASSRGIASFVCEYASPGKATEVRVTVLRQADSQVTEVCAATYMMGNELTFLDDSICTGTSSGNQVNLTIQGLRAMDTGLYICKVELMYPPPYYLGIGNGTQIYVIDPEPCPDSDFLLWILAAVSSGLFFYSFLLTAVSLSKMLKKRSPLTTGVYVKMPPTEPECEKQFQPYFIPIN
Description: Antibodies were also tested for their ability to block binding of CTLA4 to its cognate ligands CD80 and CD86 by flow cytometry. The plasmid encoding full-length human CTLA4 was transiently expressed in HEK293F cells. Cells were washed with staining buffer (PBSA buffer including 1.76 mM KH₂PO₄, 10.14 mM Na₂HPO₄.12H₂O, 2.68 mM KCl, 136.89 mM NaCl and 1% BSA), and resuspended in staining buffer containing 100 nM test antibodies. […] Cells were washed once, and analyzed by CytoFlex flow cytometry.

[8] = target: T6, full-length mouse CTLA4 expressed on HEK293F cells (mouse, UniProt P09793 36-223); test: flow cytometry, transfected HEK293F cells, antibody concentration not printed [Cont.]
T6 construct: whole, on cells
Description: (§2) The affinities of the antibodies were also assessed against human and mouse CTLA4 transiently expressed on the surface of HEK293F cells (FIG. 2). Briefly, HEK293F cells were transfected with a plasmid expressing full-length human, monkey or mouse CTLA4 from a bicistronic IRES vector also encoding EGFP, and EGFP expression was used to identify the transfected cells. After 48 hours, the mammalian cell suspension (2×10⁵/well) was transferred to an Eppendorf tube, centrifuged, the supernatant was discarded, the cells were resuspended with 1 mL PBSA (to a density is 4×10⁶ cells/mL), and added to a 96 well plate. […] The cells were then washed once prior to analysis by flow cytometry (Beckman® CytoFlex).

[9] = target: T5, full-length human CTLA4 expressed on …; test: as above
Description: as §2

B1: B15716 (Fab, V domains shown)
VH: EVQLVESGGGLVQPGGSLRLSCAASGYSITSGYYWAWIRQAPGKGLEWVSSISGSGSTTYYADSVKGRFTISRDNSKNTLYLQLNSLRAEDTAVYYCARDGFGYFDYWGQGTLVTVSS
VL: DIQLTQSPSSLSASVGDRVTITCSASSSVSYVYWYQQKPGKAPKLLIYDASSLESGVPSRFSGSGSGTDFTLTISSLQPEDFATYYCVQGLQTPWTFGQGTKVEIKR
notes: Fab from E. coli; also called Fab hit of TY21586
Kd [1]: 12.1 nM

B2: TY21692 (antibody, V domains shown)
VH: EVQLVESGGGLVQPGGSLRLSCAASGYSITSGHYWSWIRQAPGKGLEWIGDISHSGSTYYSQSLKSRVTISRDNSKNTLYLQLNSLRAEDTAVYYCARGSRTGYFDYWGQGTLVTVSS
VL: DIQLTQSPSSLSASVGDRVTITCRASQSISSYLNWYQQKPGKAPKLLIYDASNLETGVPSRFSGSGSGTDFTLTISSLQPEDFATYYCQHHYGTPLTFGQGTKVEIKR
notes: human IgG1 (hIgG1) from Fab hit B16083
Kd [2]: 3.95 nM | Kd [3]: 1.12 nM | Kd [4]: 2.76 nM

B3: TY23286 (antibody, V domains shown)
VH: EVQLVESGGGLVQPGGSLRLSCAASGYSISSGYHWSWIRQAPGKGLEWLARIDWDDDKYYSTSLKSRLTISRDNSKNTLYLQLNSLRAEDTAVYYCARSYVYFDYWGQGTLVTVSS
VL: DIQLTQSPSSLSASVGDRVTITCRASQSVRGRFLAWYQQKPGKAPKLLIYDASNRATGIPSRFSGSGSGTDFTLTISSLQPEDFATYYCQQSSSWPPTFGQGTKVEIKR
EC50 [5]: 1500 nM

B4: TY23289 (antibody, V domains shown)
VH: EVQLVESGGGLVQPGGSLRLSCAASGYSISSGYHWSWIRQAPGKGLEWLARIDWDDDKYYSTSLKSRLTISRDNSKNTLYLQLNSLRAEDTAVYYCARSYVYFDYWGQGTLVTVSS
VL: DIQLTQSPSSLSASVGDRVTITCRASQSVRGRFLAWYQQKPGKAPKLLIYDASNRATGIPSRFSGSGSGTDFTLTISSLQPEDFATYYCQQSSSWPPTFGQGTKVEIKR
EC50 [5]: 133 nM

B5: TY23291 (antibody, V domains shown)
VH: EVQLVESGGGLVQPGGSLRLSCAASGYSISSGYHWSWIRQAPGKGLEWLARIDWDDDKYYSTSLKSRLTISRDNSKNTLYLQLNSLRAEDTAVYYCARSYVYFDYWGQGTLVTVSS
VL: DIQLTQSPSSLSASVGDRVTITCRASQSVRGRFLAWYQQKPGKAPKLLIYDASNRATGIPSRFSGSGSGTDFTLTISSLQPEDFATYYCQQSSSWPPTFGQGTKVEIKR
EC50 [5]: 3660 nM

B6: TY23280 (antibody, V domains shown)
VH: EVQLVESGGGLVQPGGSLRLSCAASGYSISSGYHWSWIRQAPGKGLEWLARIDWDDDKYYSTSLKSRLTISRDNSKNTLYLQLNSLRAEDTAVYYCARSYVYFDYWGQGTLVTVSS
VL: DIQLTQSPSSLSASVGDRVTITCRASQSVRGRFLAWYQQKPGKAPKLLIYDASNRATGIPSRFSGSGSGTDFTLTISSLQPEDFATYYCQQSSSWPPTFGQGTKVEIKR
EC50 [5]: 2950 nM

B7: B15756 (Fab, V domains shown)
VH: EVQLVESGGGLVQPGGSLRLSCAASGFSLSTGGVAVSWIRQAPGKGLEWIGEIYHSGSTYYSPSLKSRVTISRDNSKNTLYLQLNSLRAEDTAVYYCARRIATATYFDYWGQGTLVTVSS
VL: DIQLTQSPSSLSASVGDRVTITCRASQTVFSRYLAWYQQKPGKAPKLLIYDASNRATGIPSRFSGSGSGTDFTLTISSLQPEDFATYYCQQSYYWPPWTFGQGTKVEIKR
notes: Fab from E. coli; also called Fab hit of TY21591
Kd [1]: 55.5 nM | koff [1]: 0.00663 s⁻¹ | kon [1]: 120000 M⁻¹ s⁻¹

B8: B15722 (Fab, V domains shown)
VH: EVQLVESGGGLVQPGGSLRLSCAASGFTFSDYGIHWVRQAPGKGLEWIGEIYHSGSTYYSPSLKSRVTISRDNSKNTLYLQLNSLRAEDTAVYYCARDVAPGSSGYYDGFDFWGQGTLVTVSS
VL: DIQLTQSPSSLSASVGDRVTITCRASQGIGSSLAWYQQKPGKAPKLLIYDASNRATGIPSRFSGSGSGTDFTLTISSLQPEDFATYYCQQYDQWPPWTFGQGTKVEIKR
notes: Fab from E. coli; also called Fab hit of TY21587
Kd [1]: 61.2 nM | koff [1]: 0.00434 s⁻¹ | kon [1]: 70900 M⁻¹ s⁻¹

B9: TY21588 (antibody, V domains shown)
VH: EVQLVESGGGLVQPGGSLRLSCAASGYSISSGYHWDWIRQAPGKGLEWVSGISGYGGSTYYADSVKGRFTISRDNSKNTLYLQLNSLRAEDTAVYYCARHSYYGSGNFDYWGQGTLVTVSS
VL: DIQLTQSPSSLSASVGDRVTITCRASESVDFFGKSFLHWYQQKPGKAPKLLIYDASNLETGVPSRFSGSGSGTDFTLTISSLQPEDFATYYCQQSYSWPPTFGQGTKVEIKR
notes: human IgG1 (hIgG1) from Fab hit B15732
IC50 (read off the curve) [6]: ~1 nM | % of cells in upper right quadrant (CD80-positive) in the presence of the antibody [7]: 19.4% | Mean of the CD80 binding signal in the presence of the antibody [7]: 8180 | % of cells in upper right quadrant (Q2) [8]: 32.1% | % of cells in upper right quadrant (Q2) [9]: 27%

B10: B15717 (Fab, V domains shown)
VH: EVQLVESGGGLVQPGGSLRLSCAASGYTFSGYGIHWVRQAPGKGLEWIGEIYHSGSTYYSPSLKSRVTISRDNSKNTLYLQLNSLRAEDTAVYYCARRIDAFDIWGQGTLVTVSS
VL: DIQLTQSPSSLSASVGDRVTITCRASQSVDFDGFSFLHWYQQKPGKAPKLLIYDASSLESGVPSRFSGSGSGTDFTLTISSLQPEDFATYYCQQRDSWPYTFGQGTKVEIKR
notes: Fab from E. coli; also called Fab hit of TY21689
Kd [1]: 105 nM
